Values quoted from earlier work as cited in patent publication US20230416704A1, “LACTONASE AND STABILIZED MUTANTS THEREOF FOR TREATING FUNGAL INFECTIONS IN PLANTS” (MIGAL GALILEE RESEARCH INSTITUTE LTD., priority 2020, published 2023).

Conditions: as shown in WO 2020/255131; cited from earlier work

B1: H172Y: M. tuberculosis phosphotriesterase-like lactonase (PPH) with H172 substituted by tyrosine (protein)
chain: MISEFPELNTARGPIDTADLGVTLMHEHVFIMTTEIAQNYPEAWGDEDKRVAGAIARLGELKARGVDTIVDLTVIGLGRYIPRIARVAAATELNIVVATGLYTYNDVPFYFHYLGPGAQLDGPEIMTDMFVRDIEHGIADTGIKAGILKCATDEPGLTPGVERVLRAVAQAYKRTGAPISTHTHAGLRRGLDQQRIFAEEGVDLSRVVIGHCGDSTDVGYLEELIAAGSYLGMDRFGVDVISPFQDRVNIVARMCERGHADKMVLSHDACCYFDALPEELVPVAMPNWHYLHIHNDVIPALKQHGVTDEQLHTMLVDNPRRIFERQGGYQ
In the case of B1, the “temperature of 50% residual activity” value is given as “about 65 °C”.
